Results reported in the supplement of paper PMC11246515.
± gives the standard deviation of the averaged measurements.

Assay: total protein half-life in vivo (active degradation + dilution); higher = more stable protein
[1] = E. coli NCM3722 delta-clpP delta-lon delta-hslV, growth: N-lim chemostat, doubling time 6 h
[2] = E. coli NCM3722 delta-clpP, growth: N-lim chemostat, doubling time 6 h
[3] = E. coli NCM3722 delta-hslV, growth: N-lim chemostat, doubling time 6 h
[4] = E. coli NCM3722 delta-lon, growth: N-lim chemostat, doubling time 6 h
[5] = E. coli NCM3722 delta-smpB, growth: N-lim chemostat, doubling time 6 h
[6] = wild type E. coli NCM3722, growth: C-lim chemostat, doubling time 3 h
[7] = wild type E. coli NCM3722, growth: C-lim chemostat, doubling time 6 h
[8] = wild type E. coli NCM3722, growth: C-lim chemostat, doubling time 12 h
[9] = wild type E. coli NCM3722, growth: N-lim chemostat, doubling time 6 h
[10] = wild type E. coli NCM3722, growth: N-lim chemostat, doubling time 12 h
[11] = wild type E. coli NCM3722, growth: P-lim chemostat, doubling time 6 h
[12] = wild type E. coli NCM3722, growth: P-lim chemostat, doubling time 12 h

Sequence	total protein half-life in vivo [1]	total protein half-life in vivo [2]	total protein half-life in vivo [3]	total protein half-life in vivo [4]	total protein half-life in vivo [5]	total protein half-life in vivo [6]	total protein half-life in vivo [7]	total protein half-life in vivo [8]	total protein half-life in vivo [9]	total protein half-life in vivo [10]	total protein half-life in vivo [11]	total protein half-life in vivo [12]
MLQFILRRLGLVIPTFIGITLLTFAFVHMIPGDPVMIMAGERGISPERHAQLLAELGLDKPMWQQYLHYIWGVMHGDLGISMKSRIPVWEEFVPRFQATLELGVCAMIFATAVGIPVGVLAAVKRGSIFDHTAVGLALTGYSMPIFWWGMMLIMLVSVHWNLTPVSGRVSDMVFLDDSNPLTGFMLIDTAIWGEDGNFIDAVAHMILPAIVLGTIPLAVIVRMTRSSMLEVLGEDYIRTARAKGLTRMRVIIVHALRNAMLPVVTVIGLQVGTLLAGAILTETIFSWPGLGRWLIDALQRRDYPVVQGGVLLVATMIILVNLLVDLLYGVVNPRIRHKK [P0AEF8]	6.91 ± 0.36 h	6.54 ± 1.1 h	5.46 ± 0.53 h	5.39 ± 0.46 h	5.95 ± 0.45 h	3.53 ± 0.4 h	6.656 ± 0.039 h	13.1 ± 1.5 h	6.42 ± 0.19 h	13 ± 3.1 h	5.96 ± 0.41 h	11.5 ± 1 h
MSKRLPPLNALRVFDAAARHLSFTRAAEELFVTQAAVSHQIKSLEDFLGLKLFRRRNRSLLLTEEGQSYFLDIKEIFSQLTEATRKLQARSAKGALTVSLLPSFAIHWLVPRLSSFNSAYPGIDVRIQAVDRQEDKLADDVDVAIFYGRGNWPGLRVEKLYAEYLLPVCSPLLLTGEKPLKTPEDLAKHTLLHDASRRDWQTYTRQLGLNHINVQQGPIFSHSAMVLQAAIHGQGVALANNVMAQSEIEAGRLVCPFNDVLVSKNAFYLVCHDSQAELGKIAAFRQWILAKAAAEQEKFRFRYEQ [P0A9F6]	5.93 ± 0.27 h	–	5.94 ± 0.4 h	–	5.73 ± 0.34 h	3.2 ± 0.13 h	6.59 ± 0.7 h	11 ± 0.54 h	6.86 ± 0.45 h	12.1 ± 0.34 h	5.82 ± 0.081 h	13.3 ± 1.3 h
MQAEILLTLKLQQKLFADPRRISLLKHIALSGSISQGAKDAGISYKSAWDAINEMNQLSEHILVERATGGKGGGGAVLTRYGQRLIQLYDLLAQIQQKAFDVLSDDDALPLNSLLAAISRFSLQTSARNQWFGTITARDHDDVQQHVDVLLADGKTRLKVAITAQSGARLGLDEGKEVLILLKAPWVGITQDEAVAQNADNQLPGIISHIERGAEQCEVLMALPDGQTLCATVPVNEATSLQQGQNVTAYFNADSVIIATLC [P0A9G8]	5.338 ± 0.023 h	5.85 ± 0.37 h	6.82 ± 1.4 h	6.41 ± 0.61 h	5.84 ± 0.2 h	3.04 ± 0.29 h	6.38 ± 0.15 h	12.7 ± 0.41 h	5.703 ± 0.02 h	11.88 ± 0.075 h	6.2 ± 0.59 h	12.13 ± 0.038 h
MTTHDRVRLQLQALEALLREHQHWRNDEPQPHQFNSTQPFFMDTMEPLEWLQWVLIPRMHDLLDNKQPLPGAFAVAPYYEMALATDHPQRALILAELEKLDALFADDAS	5.66 ± 0.27 h	–	–	–	3.91 h	2.09 h	4.97 ± 0.19 h	11.8 ± 5.3 h	3.394 ± 0.03 h	6.93 h	3.49 ± 1.9 h	7.56 ± 1.8 h
MKCPVCHQGEMVSGIKDIPYTFRGRKTVLKGIHGLYCVHCEESIMNKEESDAFMAQVKAFRASVNAETVAPEFIVKVRKKLSLTQKEASEIFGGGVNAFSRYEKGNAQPHPSTIKLLRVLDKHPELLNEIR	4.78 ± 0.28 h	1.229 ± 0.0039 h	1.01 h	3.01 ± 0.085 h	0.847 ± 0.046 h	0.559 ± 0.062 h	1.07 ± 0.12 h	1.23 h	0.993 h	1.08 h	1.13 h	1.6 ± 0.84 h
MKPTTISLLQKYKQEKKRFATITAYDYSFAKLFADEGLNVMLVGDSLGMTVQGHDSTLPVTVADIAYHTAAVRRGAPNCLLLADLPFMAYATPEQAFENAATVMRAGANMVKIEGGEWLVETVQMLTERAVPVCGHLGLTPQSVNIFGGYKVQGRGDEAGDQLLSDALALEAAGAQLLVLECVPVELAKRITEALAIPVIGIGAGNVTDGQILVMHDAFGITGGHIPKFAKNFLAETGDIRAAVRQYMAEVESGVYPGEEHSFH	6.05 ± 0.05 h	5.86 ± 0.2 h	6.34 ± 0.95 h	6.74 ± 0.46 h	6.04 ± 0.64 h	2.96 ± 0.031 h	6.93 ± 0.31 h	12.5 ± 2.7 h	5.51 ± 0.51 h	12.3 ± 2.8 h	6.42 ± 1.1 h	–
MRLFAQLSWYFRREWRRYLGAVALLVIIAMLQLVPPKVVGIVVDGVTEQHFTTGQILMWIATMVLIAVVVYLLRYVWRVLLFGASYQLAVELREDYYRQLSRQHPEFYLRHRTGDLMARATNDVDRVVFAAGEGVLTLVDSLVMGCAVLIMMSTQISWQLTLFSLLPMPVMAIMIKRNGDALHERFKLAQAAFSSLNDRTQESLTSIRMIKAFGLEDRQSALFAADAEDTGKKNMRVARIDARFDPTIYIAIGMANLLAIGGGSWMVVQGSLTLGQLTSFMMYLGLMIWPMLALAWMFNIVERGSAAYSRIRAMLAEAPVVNDGSEPVPEGRGELDVNIHQFTYPQTDHPALENVNFALKPGQMLGICGPTGSGKSTLLSLIQRHFDVSEGDIRFHDIPLTKLQLDSWRSRLAVVSQTPFLFSDTVANNIALGCPNATQQEIEHVARLASVHDDILRLPQGYDTEVGERGVMLSGGQKQRISIARALLVNAEILILDDALSAVDGRTEHQILHNLRQWGQGRTVIISAHRLSALTEASEIIVMQHGHIAQRGNHDVLAQQSGWYRDMYRYQQLEAALDDAPENREEAVDA	6.33 ± 0.2 h	6.624 ± 0.017 h	5.58 ± 1.5 h	4.42 ± 0.37 h	4.26 ± 0.096 h	–	4.99 ± 0.061 h	11.1 ± 1.6 h	4.77 ± 0.67 h	7.121 ± 0.033 h	6.08 ± 0.52 h	11.6 ± 3.3 h
